Test results published in patent US20260184815A1 (published 2026).

B1: M10-G09 (Fab, V domains shown)
VH: EVQLLESGGGLVQPGGSLRLSCAASGFTFSQYGMQWVRQAPGKGLEWVSSIRSSGGATRYADSVKGRFTISRDNSKNTLYLQMNSLRAEDTAVYYCARDGYYDSSGYPDYWGQGTLVTVSS
VL: DIQMTQSPSSLSASVGDSVTITCRASQSISGYINWYQQKAGKAPKLLIYAASSLQSGVPSRFSGSGSGTHFTLTISSLQPEDFATYYCQQYVSYPFTFGPGTKVDIK
notes: HC as printed runs into CH1
B2: M11-A10 (Fab, V domains shown)
VH: EVQLLESGGGLVQPGGSLRLSCAASGFTFSNYWMMWVRQAPGKGLEWVSGIGSSGGFTSYADSVKGRFTISRDNSKNTLYLQMNSLRAEDTAVYYCAKGSYSDYGVFESWGQGTLVTVSS
VL: DIQMTQSPSSLSASVGDRVAITCRASQSIDTYLNWYQQKPGKAPKLLIYDASNLEIGVPSRFSGSGSGTDFTFIINSLQPEDVATYYCQHYLYAPYSFGQGTKLEIK
notes: HC as printed runs into CH1; also called Ml1-A10
B3: M11-E01 (Fab, V domains shown)
VH: EVQLLESGGGLVQPGGSLRLSCAASGFTFSTYEMYWVRQAPGKGLEWVSGIGSSGGMTMYADSVKGRFTISRDNSKNTLYLQMNSLRAEDTAMYYCAREQPGIAALQFWGQGTLVTVSS
VL: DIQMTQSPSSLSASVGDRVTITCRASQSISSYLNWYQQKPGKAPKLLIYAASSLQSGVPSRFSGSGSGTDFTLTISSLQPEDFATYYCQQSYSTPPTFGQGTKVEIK
notes: HC as printed runs into CH1
B4: M11-E04 (Fab, V domains shown)
VH: EVQLLESGGGLVQPGGSLRLSCAASGFTFSMYHMNWVRQAPGKGLEWVSGIVSSGGVTFYADSVKGRFTISRDNSKNTLYLQMNSLRAEDTAVYYCARITTVTTGGAFDIWGQGTMVTVSS
VL: DIQMTQSPSSLSASVGDRVTITCRASQSISIYLTWYQHRPGKAPNLLIYGAATLQTGVPSRFSGSGSGTDFTLTIRGLQPEDFATYYCQQTFSLPRTFGQGTKLEIK
notes: HC as printed runs into CH1
B5: M11-E05 (Fab, V domains shown)
VH: EVQLLESGGGLVQPGGSLRLSCAASGFTFSWYTMGWVRQAPGKGLEWVSWIYFGGLTTYADSVKGRFTISRDNSKNTLYLQMNSLRAEDTAVYYCARLGGPLDAFDIWGQGTMVTVSS
VL: DIQMTQSPSSLSASVGDTVTITCRTSQTINNYLNWYQQRPGEAPKVLIYATHTLESGVPSRFSGSGSGTDFTLTIGSLQPEDFATYYCQQSFAFPYTFGQGTKVEIT
notes: HC as printed runs into CH1
B6: M11-E06 (Fab, V domains shown)
VH: EVQLLESGGGLVQPGGSLRLSCAASGFTFSQYAMHWVRQAPGKGLEWVSSIYPSGGFTLYADSVKGRFTISRDNSKNTLYLQMNSLRAEDTAMYYCARGGWLAGGELLNWGQGTLVTVSS
VL: DIQMTQSPSSLSASIGDRVTISCRASRGIGTYLNWYQQHAGKAPKLLIRAASSLETGVPPRFSGSGSGTDFTLTISSLQSDDFATYYCQESFTNVYNFGQGTKLEIK
notes: HC as printed runs into CH1
B7: M11-G09 (Fab, V domains shown)
VH: EVQLLESGGGLVQPGGSLRLSCAASGFTFSLYNMTWVRQAPGKGLEWVSYIYPSGGGTHYADSVKGRFTISRDNSKNTLYLQMNSLRAEDTAVYYCARDTGFWSADAFDIWGQGTMVTVSS
VL: DIQMTQSPSSLSASVGDRVTITCRTSQGINHYLNWYQQKPGKAPKILVFAASELQTGVPSRFSGTGSGTSYTLTITSLQPEDVATYYCQQTYTSPYTFGQGTKLEVK
notes: HC as printed runs into CH1
B8: M11-G12 (Fab, V domains shown)
VH: EVQLLESGGGLVQPGGSLRLSCAASGFTFSQYPMNWVRQAPGKGLEWVSSISSSGGFTTYADSVKGRFTISRDNSKNTLYLQMNSLRAEDTAVYYCAREEQQGGFDYWGQGTLVTVSS
VL: DIQMTQSPSSLSAFVGDRVSITCRASQTISVYVNWYQHKSGQAPKLLIYGASSLQSGVPSRFSGSGSGTDFTLTISSLQPEDFATYFCQQSYSIPFTFGGGTDVQIR
notes: HC as printed runs into CH1
B9: M12-A08 (Fab, V domains shown)
VH: EVQLLESGGGLVQPGGSLRLSCAASGFTFSWYYMGWVRQAPGKGLEWVSWIVSSGGLTLYADSVKGRFTISRDNSKNTLYLQMNSLRAEDTAMYYCARTTVTTGDAFDIWGQGTMVTVSS
VL: DIQMTQSPSSLSASVGDRVTITCRASQSISRYLNWYQQKPGKAPKLLIYAASTLETGVPSRFSGSGSGTDFTLTITTLQPEDFVIYYCQQSYSTPYTFGQGTKLEIK
notes: HC as printed runs into CH1
B10: M12-B04 (Fab, V domains shown)
VH: EVQLLESGGGLVQPGGSLRLSCAASGFTFSLYSMYWVRQAPGKGLEWVSRIRPSGGGTVYADSVKGRFTISRDNSKNTLYLQMNSLRAEDTAVYYCARDPLYSSGDVWGQGTTVTVSS
VL: DIQMTQSPSSLSASVGDRVTITCRASQGIRNDLGWYQHKPGKAPKLLIYAASILQSGVPSRFSGTASGTDFTLTISSLQPEDFATYFCLQDYEYPLTFGGGTKLDIK
notes: HC as printed runs into CH1
B11: M12-C09 (Fab, V domains shown)
VH: EVQLLESGGGLVQPGGSLRLSCAASGFTFSSYAMVWVRQAPGKGLEWVSSIGSSGGFTLYADSVKGRFTISRDNSKNTLYLQMNSLRAEDTAVYYCASMNLGGGDAFDIWGQGTMVTVSS
VL: DIQMTQSPSSLSASVGDRVTITCRASQSIGIYLNWYHQKPGKAPNLLIYGASSLQSGVPSRFSGSGSGTDFTLTISSLQPGDFATYYCQHSYSTPFTFGGGTKVEIK
notes: HC as printed runs into CH1
B12: M12-C10 (Fab, V domains shown)
VH: EVQLLESGGGLVQPGGSLRLSCAASGFTFSDYEMHWVRQAPGKGLEWVSGISPSGGKTQYADSVKGRFTISRDNSKNTLYLQMNSLRAEDTAVYYCARDLKWGGRGSPDWYFDLWGRGTLVTVSS
VL: QSALTQPPSVSVSPGQTASITCSGDKLGEKYVSWYQQKPGQSPVVVIYQDNKRPSGIPERFSGSNSGNTATLTISGTQAVDEADYYCQAWDSYTVVFGGGSKLTVLG
notes: HC as printed runs into CH1
B13: M12-D10 (Fab, V domains shown)
VH: EVQLLESGGGLVQPGGSLRLSCAASGFTFSNYPMDWVRQAPGKGLEWVSSISSSGGWTNYADSVKGRFTISRDNSKNTLYLQMNSLRAEDTAVYYCATDTSGSYLGFDYWGQGTLVTVSS
VL: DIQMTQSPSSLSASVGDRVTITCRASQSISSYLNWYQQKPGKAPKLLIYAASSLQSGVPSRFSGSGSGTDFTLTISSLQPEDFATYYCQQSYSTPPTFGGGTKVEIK
notes: HC as printed runs into CH1
B14: M12-E06 (Fab, V domains shown)
VH: EVQLLESGGGLVQPGGSLRLSCAASGFTFSQYKMLWVRQAPGKGLEWVSGIGPSGGLTAYADSVKGRFTISRDNSKNTLYLQMNSLRAEDTAVYYCARAPWFGELGMDVWGQGTTVTVSS
VL: DIQMTQSPSSLSASVGDRVSITCRASQSISTYLNWYQHKPGKAPTLLIYGAFSLQSGVPSRFSGSGSGTDFALTISSLQPEDFATYYCQQSHSTPPTFGQGTRVEIK
notes: HC as printed runs into CH1
B15: M27-A10 (Fab, V domains shown)
VH: EVQLLESGGGLVQPGGSLRLSCAASGFTFSWYRMDWVRQAPGKGLEWVSSIWPSGGLTSYADSVKGRFTISRDNSKNTLYLQMNSLRAEDTAVYYCARGWAPGGDAFDIWGQGTMVTVSS
VL: DIQMTQSPSSLSASVGDRVTITCRASQSISAYLNWYQQKPGKAPQLLMYGVGSLQSGVPSRFSGSGSGTDFTLTISSLQPEDFATYFCQQGYTTPVTFGGGTKVEIK
notes: HC as printed runs into CH1
B16: M27-B01 (Fab, V domains shown)
VH: EVQLLESGGGLVQPGGSLRLSCAASGFTFSDYTMWWVRQAPGKGLEWVSSISSSGGITFYADSVKGRFTISRDNSKNTLYLQMNSLRAEDTAVYYCARSADTAMGGAFDIWGQGTMVTVSS
VL: not shown
notes: HC as printed runs into CH1
B17: M27-B12 (Fab, V domains shown)
VH: EVQLLESGGGLVQPGGSLRLSCAASGFTFSWYQMMWVRQAPGKGLEWVSSISPSGGITEYADSVKGRFTISRDNSKNTLYLQMNSLRAEDTAVYYCARDRSSGWYYYGMDVWGQGTTVTVSS
VL: QYELTQPPAVSVSPGQTATITCSGDKLGDEYAAWYQQKPGQSPVLVIYQDRKRPSGIPERFSGSNFGNTATLTITGTQVMDEADYYCQAWGKRNVVFGGGTKLTVL
notes: HC as printed runs into CH1
B18: M27-E03 (Fab, V domains shown)
VH: EVQLLESGGGLVQPGGSLRLSCAASGFTFSSYMMHWVRQAPGKGLEWVSGIYPSGGWTDYADSVKGRFTISRDNSKNTLYLQMNSLRAEDTATYYCARLVAGLDAFDIWGQGTMVTVSS
VL: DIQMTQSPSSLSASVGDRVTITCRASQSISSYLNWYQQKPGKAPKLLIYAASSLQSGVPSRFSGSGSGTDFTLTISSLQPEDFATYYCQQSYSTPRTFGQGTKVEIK
notes: HC as printed runs into CH1
B19: M27-F04 (Fab, V domains shown)
VH: EVQLLESGGGLVQPGGSLRLSCAASGFTFSWYPMTWVRQAPGKGLEWVSSIGPSGGQTIYADSVKGRFTISRDNSKNTLYLQMNSLRAEDTAVYYCTTEYGDYGGGFDPWGQGTLVTVSS
VL: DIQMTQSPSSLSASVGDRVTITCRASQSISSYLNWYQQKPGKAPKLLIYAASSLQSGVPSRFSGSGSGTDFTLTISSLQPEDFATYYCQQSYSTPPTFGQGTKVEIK
notes: HC as printed runs into CH1
B20: M27-F11 (Fab, V domains shown)
VH: EVQLLESGGGLVQPGGSLRLSCAASGFTFSSYHMMWVRQAPGKGLEWVSSIYPSGGATMYADSVKGRFTISRDNSKNTLYLQMNSLRAEDTAMYYCARDGYHYGDYTYFQHWGQGTLVTVSS
VL: DIQMTQSPSFLSASVGDRVTITCRASQGISSYLAWYQQKPGKAPKLLIYAASSLQSGVPSRFSGSGSGTDFTLTISSLQPEDFATYYCQQSYNTLRTFGPGTKVDLK
notes: HC as printed runs into CH1
B21: M27-G01 (Fab, V domains shown)
VH: EVQLLESGGGLVQPGGSLRLSCAASGFTFSLYRMFWVRQAPGKGLEWVSSIWSSGGPTMYADSVKGRFTISRDNSKNTLYLQMNSLRAEDTAVYYCAREYPSTYYFDYWGQGTLVTVSS
VL: DIQMTQSPSSLSASVGDRVTITCRASQSISTYLNWYQQKPGKAPKLLIYGASSLQSGVPSRFSGSGSGTDFTLTISSLQPEDFTIYYCQQSYSDPYTFGQGTKLDIK
notes: HC as printed runs into CH1
B22: M27-G04 (Fab, V domains shown)
VH: EVQLLESGGGLVQPGGSLRLSCAASGFTFSAYYMVWVRQAPGKGLEWVSYISPSGGQTQYADSVKGRFTISRDNSKNTLYLQMNSLRAEDTAVYYCAREAISSSSFDYWGQGTLVTVSS
VL: DIQMTQSPSSLSASVGDRVTITCRASQRISYYLTWYQQKPGKVPKLLIYAASSLESGVPSRFSGSGSGTDFTLTISNLQPEDFATYYCQQAFSTPFTFGGGTKVEIK
notes: HC as printed runs into CH1
B23: M27-G09 (Fab, V domains shown)
VH: EVQLLESGGGLVQPGGSLRLSCAASGFTFSEYDMAWVRQAPGKGLEWVSYIVSSGGFTSYADSVKGRFTISRDNSKNTLYLQMNSLRAEDTAVYYCTTWAGWIAAADYWGQGTLVTVSS
VL: DIQMTQSPSSVSASVGDRITITCRTRQSISNYLNWYQQKPGEPPKLLIFAASSLQSGVPSRFSGSGTGTEFTLTISSLQPEDLAIYYCQQSYDIPFTFGQGTKLEIK
notes: HC as printed runs into CH1

molecular target: T1, human plasma kallikrein (human, UniProt P03952 20-390; P03952 391-638); assay: ELISA, biotinylated pKal signal over streptavidin background
T1 construct: also called pKal; Human pKal
Text: Abbreviations used: “T/B” is the ELISA signal obtained using of the “target” (biotinylated plasma kallikrein) divided by the ELISA signal of the “background” (streptavidin); both of which were coated on microtiter plates, “nd” is not determined. The symbol “q” refers to the amber suppressible stop codon (TAG), which is translated as glutamine (Q) in strains of E. coli such as the TG1 cells that were used to express the Fab fragments.

T1 sequence (P03952 20-390, chain 1 of 2): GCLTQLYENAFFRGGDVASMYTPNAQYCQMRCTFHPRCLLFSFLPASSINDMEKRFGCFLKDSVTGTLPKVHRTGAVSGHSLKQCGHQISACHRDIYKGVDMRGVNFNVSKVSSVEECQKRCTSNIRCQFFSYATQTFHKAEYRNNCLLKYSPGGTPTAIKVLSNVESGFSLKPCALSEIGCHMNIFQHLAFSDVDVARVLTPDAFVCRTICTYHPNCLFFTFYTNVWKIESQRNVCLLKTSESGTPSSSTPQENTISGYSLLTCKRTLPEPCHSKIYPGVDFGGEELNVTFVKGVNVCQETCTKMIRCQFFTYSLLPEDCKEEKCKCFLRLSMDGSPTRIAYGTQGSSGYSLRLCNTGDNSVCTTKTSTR
T1 sequence (P03952 391-638, chain 2 of 2): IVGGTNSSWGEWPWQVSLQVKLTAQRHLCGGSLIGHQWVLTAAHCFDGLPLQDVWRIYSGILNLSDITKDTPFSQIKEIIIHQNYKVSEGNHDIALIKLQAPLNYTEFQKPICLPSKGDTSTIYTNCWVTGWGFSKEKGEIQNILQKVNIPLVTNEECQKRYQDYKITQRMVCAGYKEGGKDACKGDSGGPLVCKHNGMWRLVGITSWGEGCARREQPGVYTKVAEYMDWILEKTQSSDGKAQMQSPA

Question: B1 was tested. Which “ELISA (T/B)” value did it give?
Answer: Its value is 7.1 T/B.

Question: B2 was tested. Which “ELISA (T/B)” value did it give?
Answer: The value was 25 T/B.

Question: For B3, which “ELISA (T/B)” value is on record?
Answer: Its value is 11.7 T/B.

Question: How did the “ELISA (T/B)” value turn out when B4 was run?
Answer: Its value is 43.2 T/B.

Question: For B5, which “ELISA (T/B)” value is on record?
Answer: The value was 41.4 T/B.

Question: With B6 as the binder, how does the “ELISA (T/B)” value read?
Answer: Its value is 12.6 T/B.

Question: With B7 as the binder, how does the “ELISA (T/B)” value read?
Answer: The value was 23.6 T/B.

Question: With B8 as the binder, how does the “ELISA (T/B)” value read?
Answer: The value was 4.9 T/B.

Question: B9 was tested. Which “ELISA (T/B)” value did it give?
Answer: The value was 40.4 T/B.

Question: With B10 as the binder, how does the “ELISA (T/B)” value read?
Answer: The value was 18 T/B.

Question: With B11 as the binder, how does the “ELISA (T/B)” value read?
Answer: Its value is 7 T/B.

Question: How did the “ELISA (T/B)” value turn out when B12 was run?
Answer: Its value is 8.3 T/B.

Question: With B13 as the binder, how does the “ELISA (T/B)” value read?
Answer: The value was 9.9 T/B.

Question: With B14 as the binder, how does the “ELISA (T/B)” value read?
Answer: Its value is 48 T/B.

Question: How did the “ELISA (T/B)” value turn out when B15 was run?
Answer: Its value is 3.2 T/B.

Question: Which “ELISA (T/B)” value does the source give for B16 here?
Answer: The value was 33.1 T/B.

Question: Which “ELISA (T/B)” value does the source give for B17 here?
Answer: Its value is 2.3 T/B.

Question: How did the “ELISA (T/B)” value turn out when B18 was run?
Answer: Its value is 35.9 T/B.

Question: How did the “ELISA (T/B)” value turn out when B19 was run?
Answer: The value was 10.5 T/B.

Question: For B20, which “ELISA (T/B)” value is on record?
Answer: The value was 10 T/B.

Question: How did the “ELISA (T/B)” value turn out when B21 was run?
Answer: The value was 31.4 T/B.

Question: B22 was tested. Which “ELISA (T/B)” value did it give?
Answer: The value was 4.1 T/B.

Question: With B23 as the binder, how does the “ELISA (T/B)” value read?
Answer: Its value is 2.2 T/B.
